From paper doi:10.1101/2025.10.30.685657 come the findings set out here.

What all share (assay): live-cell long-exposure single-molecule localization microscopy
For experiment [1], the target named is T3SS injectisome of Yersinia enterocolitica (Yersinia enterocolitica (endogenous)) (UniProt Q01245).
The target is the same in experiment [2]. The source holds these as a separate data set.
Experiment [3] shares this target. This is another data set of the same source.

Where two headings read alike, the source gives them in different places.

Turning to “Halo-tagged SctQ (from UniProt Q79NI3 1-307) (natural protein)”, in experiment [1], the bound time constant tau (inverse of koff) is 2.5 s, the long bound time constant tau (long component of the bi-exponential fit) is 23 s and the short bound time constant tau (short component of the bi-exponential fit) was 4.5 s. Also, in experiment [2], the short bound time constant tau (short component of the bi-exponential fit) turned out to be 2.1 s; the weighted average bound time constant (short- and long-lived events) was 2.7 s. Moreover, the bound time constant tau (inverse of koff) in experiment [3] was found to be 4.1 s.
With “Halo-tagged SctL (from UniProt Q01253 1-223) (natural protein)”, in experiment [1], the bound time constant tau (inverse of koff) came out at 3.4 s; the short bound time constant tau (short component of the bi-exponential fit) turned out to be 3.1 s; the weighted average bound time constant (short- and long-lived events) worked out at 4.4 s. In experiment [3], this substance showed a bound time constant tau (inverse of koff) of 3.9 s.
